Source: patent US20250041437A1, “HUMANIZED MUC1 ANTIBODY AND ANTIBODY DRUG CONJUGATE” (Sun Pharma Advanced Research Company Limited, priority 2023, published 2025)

Experiments:
[1] = tested on: COLO-357 pancreatic carcinoma cells; experiment: Growth inhibition of human cancer cell lines, COLO-357; details: COLO-357, high MUC1-SEA expressing
HT-29 cells = experiment: Growth inhibition of human cancer cell lines, HT-29; format: cell-based; details: HT-29, no MUC1 expressing
Procedure: (§1) Human cancer cell lines (such as Colo357, HT29, SKOV3, BxPC3 and T47D) were seeded at 5000 cells/well in a 96-well plate flat bottom clear plate and allowed to adhere overnight. Next day, antibody/ADCs were added to these cells at the mentioned concentration or at a mentioned concentration range. Post 5-7 days of treatment, 20 μl of presto blue dye was added to wells and absorbance was recorded at 570 nm (600 nm reference wavelength). Percent survival was calculated against wells containing untreated cells in complete media and IC50 was calculated in Graphpad Prism.

SKOV-3 cells = experiment: Growth inhibition of human cancer cell lines, SKOV-3; format: cell-based; details: SKOV-3, moderate MUC1 expressing
Procedure: as §1

[2] = target: T1, human MUC1-expressing SKOV3 cell line (Homo sapiens, UniProt P15941); experiment: Binding by flow cytometry on SKOV3 cell line
T1 construct: endogenous in cells; host or cells: SKOV3, COLO357, HT29 (human cancer cell lines)
Text: The CDR residues from mouse anti-MUC1 antibody (m5F3) VH- (SEQ ID NO: 1) and VL- (SEQ ID NO: 2) domains were identified according to the three antibody numbering systems and grafted onto the human framework region sequences VH- (SEQ ID NO: 3) and VL- (SEQ ID NO: 4) domains respectively. CDRs from 5F3 were chemically synthesized and subsequently cloned into mammalian expression vectors. The expression vectors with humanized 5F3 heavy chain and light chain were named as SP66-HC and SP66-LC respectively. The VH domain of SP66 is SEQ ID NO: 5, and the VL domain of SP66 is SEQ ID NO: 6. The antibody expressed with SP66-HC and SP66-LC was named as SP66. SP66 was transiently expressed in CHO cells and purified by Protein-A affinity chromatography and evaluated for its binding to the human MUC1 SEA domain using flow cytometry on the human MUC1-expressing SKOV3 cell line (FIG. 1).
Dose dependent binding of surface MUC1 expression on human cancer cells using flow cytometer: Human cancer cell lines (COLO357, HT29 and SKOV3) or mouse cancer cell line expressing human MUC1 (DA3-TM) were harvested enzymatically using 0.25% Trypsin and 0.2% EDTA in Dulbecco's Phosphate Buffered Saline (D-PBS), washed with excess cell culture media and re-suspended at a cell density of 1-2×10^6/mL in the cell-line specific cell culture media. […]

[3] = target: T2, recombinant human MUC1-SEA (Homo sapiens, UniProt P15941); experiment: Binding strength by Surface Plasmon Resonance (SPR); details: Table 2
T2 construct: on recombinant human MUC1-SEA on SPR; purchased Acrobiosystems MU1-H52H9
T2 sequence (P15941 1039-1148 limits assumed): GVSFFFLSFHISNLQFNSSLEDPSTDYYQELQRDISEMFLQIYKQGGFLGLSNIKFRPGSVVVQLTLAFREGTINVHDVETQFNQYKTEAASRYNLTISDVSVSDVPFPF
Procedure: Binding strength assessment using Surface Plasmon Resonance (SPR): MUC1 antigen (Acrobiosystems, Cat: MU1-H52H9) was captured on the anti-His immobilized on CM5 chip at 5 μl/min flow rate for 60 s. Post this concentration range of 0-50 nM of antibody or ADC is passed over MUC1 antigen at a flow rate of 30 μl/min flow rate for 120 s, keeping dissociation time of 1800 s at 25°. The dose response generated is evaluated on BIAevaluation software for the calculation of affinity of antibody to antigen as measured by dissociation constant (KD).

[4] = target: T3, human MUC1 expressing DA3-TM cell line (Homo sapiens, UniProt P15941); experiment: Dose dependent binding by flow cytometry on DA3-TM cell line; details: MUC1 positive DA3-TM cell line
T3 construct: expressed in transfected cells; host or cells: DA3-TM (mouse cancer cell line)
Text: Dose dependent binding of surface MUC1 expression on human cancer cells using flow cytometer: Human cancer cell lines (COLO357, HT29 and SKOV3) or mouse cancer cell line expressing human MUC1 (DA3-TM) were harvested enzymatically using 0.25% Trypsin and 0.2% EDTA in Dulbecco's Phosphate Buffered Saline (D-PBS), washed with excess cell culture media and re-suspended at a cell density of 1-2×10^6/mL in the cell-line specific cell culture media. The anti-MUC1-SEA mAb (chimeric or humanized IgG)/ADC or the reference IgG antibody/ADC were added to cells at a concentration range of 0-50 nM. The cells were maintained at 4° C. for 1 hour and washed with the excess cell culture media. These cells were further stained with goat anti-human IgG, Fcγ, conjugated with Alexa Fluor 647 (Jackson Immuno Research, West Grove, PA, USA) for 1 hour at 4° C. The concentration for goat anti-human IgG, Fcγ was as per the manufacturer's instructions. Cells were further washed with the excess cell culture media and re-suspended in 100 μl of cell culture media. Cell-associated fluorescence was detected and recorded using flow cytometry (Beckman Coulter, Cytoflex). The mean intensity of fluorescence was obtained from FlowJo software and graph was plotted in Graphpad prism of concentration versus mean intensity of fluorescence.

T1 sequence (P15941 24-1255): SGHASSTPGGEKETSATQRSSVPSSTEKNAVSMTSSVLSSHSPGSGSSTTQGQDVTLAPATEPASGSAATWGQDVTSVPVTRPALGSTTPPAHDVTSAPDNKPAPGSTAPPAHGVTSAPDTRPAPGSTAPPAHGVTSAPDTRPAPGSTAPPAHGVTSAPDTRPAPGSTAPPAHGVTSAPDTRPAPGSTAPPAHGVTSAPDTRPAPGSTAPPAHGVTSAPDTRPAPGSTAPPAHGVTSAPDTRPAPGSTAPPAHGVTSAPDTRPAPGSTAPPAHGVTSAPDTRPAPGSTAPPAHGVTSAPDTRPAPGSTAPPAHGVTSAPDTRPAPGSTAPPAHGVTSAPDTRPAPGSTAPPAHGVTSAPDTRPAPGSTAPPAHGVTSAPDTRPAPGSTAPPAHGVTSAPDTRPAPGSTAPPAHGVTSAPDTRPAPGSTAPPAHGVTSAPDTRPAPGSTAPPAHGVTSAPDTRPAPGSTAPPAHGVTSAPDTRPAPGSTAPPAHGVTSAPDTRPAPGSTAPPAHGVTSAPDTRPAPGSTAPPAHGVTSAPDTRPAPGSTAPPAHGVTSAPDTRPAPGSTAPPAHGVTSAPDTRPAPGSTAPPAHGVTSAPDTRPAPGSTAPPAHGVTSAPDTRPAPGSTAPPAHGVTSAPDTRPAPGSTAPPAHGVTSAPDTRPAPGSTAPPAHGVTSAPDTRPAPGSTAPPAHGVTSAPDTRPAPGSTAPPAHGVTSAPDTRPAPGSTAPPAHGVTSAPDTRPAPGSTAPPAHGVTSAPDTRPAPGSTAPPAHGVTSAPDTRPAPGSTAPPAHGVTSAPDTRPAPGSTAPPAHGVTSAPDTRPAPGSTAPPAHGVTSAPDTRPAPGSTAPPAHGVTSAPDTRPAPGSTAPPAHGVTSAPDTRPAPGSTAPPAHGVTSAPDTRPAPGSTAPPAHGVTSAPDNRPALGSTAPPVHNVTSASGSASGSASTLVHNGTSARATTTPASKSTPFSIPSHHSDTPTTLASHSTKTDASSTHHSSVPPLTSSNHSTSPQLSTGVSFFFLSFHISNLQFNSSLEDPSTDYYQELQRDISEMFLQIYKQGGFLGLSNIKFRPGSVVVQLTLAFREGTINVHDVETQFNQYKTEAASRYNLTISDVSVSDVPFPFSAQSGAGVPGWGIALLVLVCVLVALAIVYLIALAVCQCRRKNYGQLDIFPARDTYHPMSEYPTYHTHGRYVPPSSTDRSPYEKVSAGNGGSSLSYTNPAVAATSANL
T3 sequence (P15941 24-1255): as above

B1: SP66: CDR-grafted humanized 5F3; VH SEQ ID NO: 5, VL SEQ ID NO: 6 (antibody, V domains shown)
VH: EIQLVQSGAEVKKPGSSVKVSCKASGHSITRGSSWHWMRQAPGQGLEWIGYIHYGGGTSYNPSLKSRATLTVDTSTNTAYMELSSLRSEDTAFYFCARYSYDITYRWFFDVWGQGTLVTVSS
VL: DIQMTQSPSTLSASVGDRVTITCRASQNIGTSIHWFQQKPGKAPKLLMYRASESISGVPSRFSGSGSGTEFTLTISSLQPDDFATYYCQQNNNWPLTFGQGTKVEVK
cytotoxic effect / growth inhibition (in words) [1]: No growth inhibition | cytotoxic effect / growth inhibition (in words) (HT-29 cells): No growth inhibition | cytotoxic effect / growth inhibition (in words) (SKOV-3 cells): No growth inhibition | binding by flow cytometry (in words) [2]: unable to bind

B2: HM2 LM3: variant of SP66; VH HM2 SEQ ID NO: 8, VL LM3 SEQ ID NO: 14 (antibody, V domains shown)
VH: EIQLVQSGAEVKKPGSSVKVSCKVTGHSITRGSSWHWMRQAPGQGLEWIGYIHYGGGTSYNPSLKSRITITRDTSTNTAYMELSSLRSEDTAFYFCARYSYDITYRWFFDVWGQGTLVTVSS
VL: DIQMTQSPSTLSASVGDRVTITCRASQNIGTSIHWYQQKPGKAPKLLIKYASESISGVPSRFSGSGSGTEFTLTISSLQPDDFATYYCQQNNNWPLTFGQGTKVEVK
kd [3]: 0.000188 s⁻¹

B3: HM2 LM2: variant of SP66; VH HM2 SEQ ID NO: 8, VL LM2 SEQ ID NO: 13 (antibody, V domains shown)
VH: EIQLVQSGAEVKKPGSSVKVSCKVTGHSITRGSSWHWMRQAPGQGLEWIGYIHYGGGTSYNPSLKSRITITRDTSTNTAYMELSSLRSEDTAFYFCARYSYDITYRWFFDVWGQGTLVTVSS
VL: DIQMTQSPSTLSASVGDRVTITCRASQNIGTSIHWYQQKPGKAPKLLIKRASESISGVPSRFSGSGSGTEFTLTISSLQPDDFATYYCQQNNNWPLTFGQGTKVEVK
kd [3]: 0.000255 s⁻¹

B4: HM4 LM2: variant of SP66; VH HM4 SEQ ID NO: 10, VL LM2 SEQ ID NO: 13 (antibody, V domains shown)
VH: EIQLVQSGAEVKKPGSSVKVSCKVTGHSITRGSSWHWMRQAPGQGLEWIGYIHYGGGTSYNPSLKSRATLTRDTSTNTFYMELSSLRSEDTAFYFCARYSYDITYRWFFDVWGQGTLVTVSS
VL: DIQMTQSPSTLSASVGDRVTITCRASQNIGTSIHWYQQKPGKAPKLLIKRASESISGVPSRFSGSGSGTEFTLTISSLQPDDFATYYCQQNNNWPLTFGQGTKVEVK
kd [3]: 0.000261 s⁻¹

B5: HM5 LM2: variant of SP66; VH HM5 SEQ ID NO: 11, VL LM2 SEQ ID NO: 13 (antibody, V domains shown)
VH: EIQLVQSGAEVKKPGSSVKVSCKVTGHSITRGSSWHWMRQAPGQGLEWIGYIHYGGGTSYNPSLKSRITITRDTSTNTFYMELSSLRSEDTAFYFCARYSYDITYRWFFDVWGQGTLVTVSS
VL: DIQMTQSPSTLSASVGDRVTITCRASQNIGTSIHWYQQKPGKAPKLLIKRASESISGVPSRFSGSGSGTEFTLTISSLQPDDFATYYCQQNNNWPLTFGQGTKVEVK
kd [3]: 0.000213 s⁻¹

B6: HM4 LM3: variant of SP66; VH HM4 SEQ ID NO: 10, VL LM3 SEQ ID NO: 14 (antibody, V domains shown)
VH: EIQLVQSGAEVKKPGSSVKVSCKVTGHSITRGSSWHWMRQAPGQGLEWIGYIHYGGGTSYNPSLKSRATLTRDTSTNTFYMELSSLRSEDTAFYFCARYSYDITYRWFFDVWGQGTLVTVSS
VL: DIQMTQSPSTLSASVGDRVTITCRASQNIGTSIHWYQQKPGKAPKLLIKYASESISGVPSRFSGSGSGTEFTLTISSLQPDDFATYYCQQNNNWPLTFGQGTKVEVK
kd [3]: 0.000238 s⁻¹

B7: HM3 LM3: variant of SP66; VH HM3 SEQ ID NO: 9, VL LM3 SEQ ID NO: 14 (antibody, V domains shown)
VH: EIQLVQSGAEVKKPGSSVKVSCKVTGHSITRGSSWHWMRQAPGQGLEWIGYIHYGGGTSYNPSLKSRATLTRDTSTNTAYMELSSLRSEDTAFYFCARYSYDITYRWFFDVWGQGTLVTVSS
VL: DIQMTQSPSTLSASVGDRVTITCRASQNIGTSIHWYQQKPGKAPKLLIKYASESISGVPSRFSGSGSGTEFTLTISSLQPDDFATYYCQQNNNWPLTFGQGTKVEVK
kd [3]: 0.00347 s⁻¹

B8: HM5 LM3: variant of SP66; VH HM5 SEQ ID NO: 11, VL LM3 SEQ ID NO: 14 (antibody, V domains shown)
VH: EIQLVQSGAEVKKPGSSVKVSCKVTGHSITRGSSWHWMRQAPGQGLEWIGYIHYGGGTSYNPSLKSRITITRDTSTNTFYMELSSLRSEDTAFYFCARYSYDITYRWFFDVWGQGTLVTVSS
VL: DIQMTQSPSTLSASVGDRVTITCRASQNIGTSIHWYQQKPGKAPKLLIKYASESISGVPSRFSGSGSGTEFTLTISSLQPDDFATYYCQQNNNWPLTFGQGTKVEVK
kd [3]: 0.000198 s⁻¹

B9: HM3 LM2: variant of SP66; VH HM3 SEQ ID NO: 9, VL LM2 SEQ ID NO: 13 (antibody, V domains shown)
VH: EIQLVQSGAEVKKPGSSVKVSCKVTGHSITRGSSWHWMRQAPGQGLEWIGYIHYGGGTSYNPSLKSRATLTRDTSTNTAYMELSSLRSEDTAFYFCARYSYDITYRWFFDVWGQGTLVTVSS
VL: DIQMTQSPSTLSASVGDRVTITCRASQNIGTSIHWYQQKPGKAPKLLIKRASESISGVPSRFSGSGSGTEFTLTISSLQPDDFATYYCQQNNNWPLTFGQGTKVEVK
kd [3]: 0.000492 s⁻¹

B10: chi 5F3: chimeric anti-MUC1 SEA antibody of WO 2021/186427; variable regions SEQ ID NOs: 42 and 43; parent of the humanized antibodies (antibody, V domains shown)
VH: MRVLILLCLFTAFPGVLSDVQVQESGPDLVKPSQSLSLTCTVTGHSITRGSSWHWIRQFPGNKLEWMGYIHYGGGTSYNPSLKSRISITRDTSKNQFFLQLNSVTTEDTATFFCARYSYDITYRWFFDVWGAGTTVIVSS
VL: MVSTPQFLVFLLFWIPASRGDILLTQSPAILSVSPGERVSFSCRASQNIGTSIHWYQQRKNGSPRLLIKYASESISGIPSRFSGSGSGTDFTLSINSVESEDMADYYCQQNNNWPLTFGAGTKLELK
notes: chimeric anti-MUC1 SEA antibody of WO 2021/186427; parent of the humanized antibodies
Kd [4]: 1 ± 0.1 nM | Kd [3]: 0.0427 nM | kd [3]: 0.000188 s⁻¹
